One molecule from patent US20050226876A1 (Hoffmann-La Roche, published 2005) can be followed below.

The target of experiment [1] is T1, human complement factor C3 (from human pooled serum) (human, UniProt P01024 23-1663, limits assumed).
T1 construct: The ELISA detects C3 (C3c) deposited on the coated antibody out of serum; also called C3c
Nature of the experiment: C3 ELISA, antibody coated, human pooled serum; background OD405 0.098. The protocol:
(§1) In principle, the ELISA plate is coated with concentration ranges of the antibody, to which human C1q or human pooled serum, as a source of C3, is added. C1q or […] binding is detected by an antibody directed against human C1q or […] followed by a peroxidase-labeled conjugate.

In experiment [2] the target is T2, P-selectin on P-selectin-CHO transfectants (human, UniProt P16109 42-830).
T2 construct: whole, on cells; not restated for the transfectant; also called P-selectin-CHO cells; P-selectin CHO cells
T2 sequence (looked up): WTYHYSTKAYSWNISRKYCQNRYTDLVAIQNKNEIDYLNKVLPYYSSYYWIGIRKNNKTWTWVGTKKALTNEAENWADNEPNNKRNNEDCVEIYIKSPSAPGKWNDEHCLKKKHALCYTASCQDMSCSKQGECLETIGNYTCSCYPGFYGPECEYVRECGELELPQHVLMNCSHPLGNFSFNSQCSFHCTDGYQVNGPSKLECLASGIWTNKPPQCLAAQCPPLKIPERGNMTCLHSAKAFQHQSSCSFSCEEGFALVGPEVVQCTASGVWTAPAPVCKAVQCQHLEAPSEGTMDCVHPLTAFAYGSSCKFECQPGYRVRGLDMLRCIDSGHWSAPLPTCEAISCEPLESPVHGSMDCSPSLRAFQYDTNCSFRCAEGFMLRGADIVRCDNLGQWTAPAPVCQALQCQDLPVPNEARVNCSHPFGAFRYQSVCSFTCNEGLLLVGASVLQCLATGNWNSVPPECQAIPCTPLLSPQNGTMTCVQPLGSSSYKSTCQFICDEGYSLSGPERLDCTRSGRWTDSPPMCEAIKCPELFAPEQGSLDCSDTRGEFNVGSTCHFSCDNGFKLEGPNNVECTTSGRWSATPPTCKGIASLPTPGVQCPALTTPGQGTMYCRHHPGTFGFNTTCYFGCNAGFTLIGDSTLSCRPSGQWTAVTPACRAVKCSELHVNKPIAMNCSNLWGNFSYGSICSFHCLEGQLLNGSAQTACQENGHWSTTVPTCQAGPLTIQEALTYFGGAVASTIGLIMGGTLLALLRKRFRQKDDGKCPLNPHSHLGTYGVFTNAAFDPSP
The experiment can be described thus: cell-based ELISA on P-selectin-CHO transfectants, OD405. The method, then: In the cell-based ELISA P— and E-selectin-CHO-transfectants, after detaching the cells with cell-dissociation solution (Sigma C5914), were seeded into each well of 96 well plates (TC Microwell F96 Nunc 167008) adjusted to 100,000 cells/well and cultivated in respective media overnight at 37° C. (medium for P— CHO-transfectants: DMEM+10% FCS+2 mM Glutamine+Penicillin 100 U/ml/Streptomycin 100 μg/ml; medium for E-selctin transfecttants: HAM F-12+10% FCS+2 mM Glutamine+Penicillin 100 U/ml/Streptomycin 100 μg/ml+0.1% Fungizone+100 μg/ml Neomycin). […] After washing the wells (4 times), the bound antibodies were detected using the same steps as mentioned above for the cell-free ELISA.

Experiment [3] addresses T3, Fcγ receptor on human NK cells (FcγRIII) (human, UniProt P08637 17-254).
T3 construct: whole, on cells; also called FcγR presented on NK cells
Nature of the experiment: FACS on NK cells from human blood.

Experiment [4] concerns the target T4, human complement factor C1q (human, UniProt P02745 23-245; P02746 28-253; P02747 29-245).
T4 construct: also called Clq
The experiment can be described thus: C1q ELISA, antibody coated 0.16-20 µg/ml. The protocol: as §1

For experiment [5], the target named is T5, cynomologus P-selectin (on thrombin-activated cynomologus platelets) (cynomologus monkey).
T5 chain: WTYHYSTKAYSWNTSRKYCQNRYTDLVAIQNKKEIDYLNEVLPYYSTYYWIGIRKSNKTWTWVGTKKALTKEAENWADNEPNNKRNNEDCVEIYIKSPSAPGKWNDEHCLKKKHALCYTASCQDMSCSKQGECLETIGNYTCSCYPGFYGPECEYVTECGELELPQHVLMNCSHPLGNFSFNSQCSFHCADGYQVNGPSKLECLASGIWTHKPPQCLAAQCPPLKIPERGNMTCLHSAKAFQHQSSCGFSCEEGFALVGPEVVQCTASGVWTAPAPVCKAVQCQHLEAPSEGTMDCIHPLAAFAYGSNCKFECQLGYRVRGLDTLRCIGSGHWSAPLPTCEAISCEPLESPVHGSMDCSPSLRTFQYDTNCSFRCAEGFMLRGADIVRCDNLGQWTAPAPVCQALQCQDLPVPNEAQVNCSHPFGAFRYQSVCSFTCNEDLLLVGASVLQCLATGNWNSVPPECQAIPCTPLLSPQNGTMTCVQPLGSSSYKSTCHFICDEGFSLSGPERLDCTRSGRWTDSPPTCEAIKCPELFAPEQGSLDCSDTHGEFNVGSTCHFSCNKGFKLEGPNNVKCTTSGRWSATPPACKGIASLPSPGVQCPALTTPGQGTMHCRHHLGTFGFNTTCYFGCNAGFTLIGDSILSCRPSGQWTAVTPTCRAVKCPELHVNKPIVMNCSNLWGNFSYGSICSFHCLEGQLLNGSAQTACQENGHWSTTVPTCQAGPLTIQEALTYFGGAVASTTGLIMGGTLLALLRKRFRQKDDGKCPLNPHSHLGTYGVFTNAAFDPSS
Nature of the experiment: cell-based or functional assay.

Experiment [6] concerns the target T4, human complement factor C1q. Nature of the experiment: C1q ELISA, antibody coated; background OD405 0.079. The protocol:
as §1

Experiment [7] deals with T1, human complement factor C3 (from human …). The experiment can be described thus: C3 ELISA, antibody coated, human pooled serum. The method, then: as §1

T1 sequence (P01024 23-1663 limits assumed): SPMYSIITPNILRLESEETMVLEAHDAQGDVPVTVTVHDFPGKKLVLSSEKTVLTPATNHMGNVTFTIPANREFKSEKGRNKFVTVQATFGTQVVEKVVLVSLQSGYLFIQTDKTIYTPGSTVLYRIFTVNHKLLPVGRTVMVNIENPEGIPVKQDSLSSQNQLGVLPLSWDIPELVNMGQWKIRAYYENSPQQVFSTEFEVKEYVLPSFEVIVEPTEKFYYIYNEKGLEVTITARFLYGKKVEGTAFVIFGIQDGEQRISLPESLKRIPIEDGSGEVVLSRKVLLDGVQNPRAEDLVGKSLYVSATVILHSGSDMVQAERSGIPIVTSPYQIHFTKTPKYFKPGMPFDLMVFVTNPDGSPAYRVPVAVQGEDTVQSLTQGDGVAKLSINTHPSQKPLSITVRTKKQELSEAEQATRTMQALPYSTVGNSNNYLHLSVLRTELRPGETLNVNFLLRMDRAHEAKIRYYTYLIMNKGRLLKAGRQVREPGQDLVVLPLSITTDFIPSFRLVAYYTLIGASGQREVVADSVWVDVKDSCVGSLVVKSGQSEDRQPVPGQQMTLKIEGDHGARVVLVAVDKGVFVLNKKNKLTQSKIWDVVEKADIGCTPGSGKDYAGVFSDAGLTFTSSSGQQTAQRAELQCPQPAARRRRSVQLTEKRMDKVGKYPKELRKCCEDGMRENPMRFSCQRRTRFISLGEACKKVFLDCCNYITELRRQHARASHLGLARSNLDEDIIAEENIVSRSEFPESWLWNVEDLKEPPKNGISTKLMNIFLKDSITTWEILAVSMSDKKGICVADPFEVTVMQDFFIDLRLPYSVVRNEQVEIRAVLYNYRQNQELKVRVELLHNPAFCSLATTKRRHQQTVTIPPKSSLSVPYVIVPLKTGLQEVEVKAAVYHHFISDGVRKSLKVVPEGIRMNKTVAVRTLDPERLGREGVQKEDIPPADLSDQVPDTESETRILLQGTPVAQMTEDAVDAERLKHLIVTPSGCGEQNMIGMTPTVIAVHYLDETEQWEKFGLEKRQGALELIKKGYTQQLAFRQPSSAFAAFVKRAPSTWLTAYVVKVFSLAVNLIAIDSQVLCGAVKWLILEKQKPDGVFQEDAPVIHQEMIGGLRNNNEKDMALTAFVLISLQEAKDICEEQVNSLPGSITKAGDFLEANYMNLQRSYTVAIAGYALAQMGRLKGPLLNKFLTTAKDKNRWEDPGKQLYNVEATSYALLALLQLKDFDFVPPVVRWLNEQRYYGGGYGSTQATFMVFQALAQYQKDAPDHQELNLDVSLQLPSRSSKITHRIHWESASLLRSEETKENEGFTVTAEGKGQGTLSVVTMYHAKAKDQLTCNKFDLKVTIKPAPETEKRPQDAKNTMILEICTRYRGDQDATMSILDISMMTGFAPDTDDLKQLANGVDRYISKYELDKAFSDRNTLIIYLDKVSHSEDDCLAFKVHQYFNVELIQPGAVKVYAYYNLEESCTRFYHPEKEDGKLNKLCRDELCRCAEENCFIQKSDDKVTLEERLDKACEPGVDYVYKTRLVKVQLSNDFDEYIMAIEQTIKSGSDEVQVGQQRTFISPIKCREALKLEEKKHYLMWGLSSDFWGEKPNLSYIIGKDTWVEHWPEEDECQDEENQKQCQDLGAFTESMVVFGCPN
T4 sequence (P02745 23-245 limits assumed, chain 1 of 3): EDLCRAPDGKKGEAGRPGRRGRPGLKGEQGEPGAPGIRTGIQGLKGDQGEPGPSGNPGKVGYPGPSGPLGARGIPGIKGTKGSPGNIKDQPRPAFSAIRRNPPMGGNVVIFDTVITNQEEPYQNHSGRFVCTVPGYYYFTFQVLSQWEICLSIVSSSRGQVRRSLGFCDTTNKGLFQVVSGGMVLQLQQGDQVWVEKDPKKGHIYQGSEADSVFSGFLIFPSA
T4 sequence (P02746 28-253 limits assumed, chain 2 of 3): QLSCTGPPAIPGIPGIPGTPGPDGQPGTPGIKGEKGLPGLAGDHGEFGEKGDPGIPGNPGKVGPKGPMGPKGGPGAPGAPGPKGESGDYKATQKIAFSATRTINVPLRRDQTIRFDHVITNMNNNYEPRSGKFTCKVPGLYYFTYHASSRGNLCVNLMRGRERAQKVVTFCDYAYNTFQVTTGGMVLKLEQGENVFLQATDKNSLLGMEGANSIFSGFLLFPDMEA
T4 sequence (P02747 29-245 limits assumed, chain 3 of 3): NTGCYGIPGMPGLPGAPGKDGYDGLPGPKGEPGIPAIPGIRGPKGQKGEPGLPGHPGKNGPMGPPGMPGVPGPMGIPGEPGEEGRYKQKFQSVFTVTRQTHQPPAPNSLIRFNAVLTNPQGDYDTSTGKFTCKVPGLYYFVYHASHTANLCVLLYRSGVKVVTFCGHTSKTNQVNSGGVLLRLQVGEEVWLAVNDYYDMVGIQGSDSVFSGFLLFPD
T3 sequence (P08637 17-254): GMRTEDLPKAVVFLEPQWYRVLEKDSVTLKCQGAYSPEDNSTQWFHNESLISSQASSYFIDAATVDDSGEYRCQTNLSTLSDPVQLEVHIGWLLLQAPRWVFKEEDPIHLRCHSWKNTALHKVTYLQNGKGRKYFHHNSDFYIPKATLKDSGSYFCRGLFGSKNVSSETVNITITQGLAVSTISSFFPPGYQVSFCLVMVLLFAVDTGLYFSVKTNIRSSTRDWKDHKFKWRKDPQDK

B1: HuMab 002 Fc variant IgG1v1 (PVA-236; GLPSS331: E233P; L234V; L235A; delta G236; A327G; A330S; P331S) (antibody)
heavy: EVQLVESGGGLVRPGGSLRLSCAASGFTFSNYDMHWVRQATGKGLEWVSAITAAGDIYYPGSVKGRFTISRENAKNSLYLQMNSLRAGDTAVYYCARGRYSGSGSYYNDWFDPWGQGTLVTVSSASTKGPSVFPLAPSSKSTSGGTAALGCLVKDYFPEPVTVSWNSGALTSGVHTFPAVLQSSGLYSLSSVVTVPSSSLGTQTYICNVNHKPSNTKVDKKVEPKSCDKTHTCPPCPAPPVAGPSVFLFPPKPKDTLMISRTPEVTCVVVDVSHEDPEVKFNWYVDGVEVHNAKTKPREEQYNSTYRVVSVLTVLHQDWLNGKEYKCKVSNKGLPSSIEKTISKAKGQPREPQVYTLPPSRDELTKNQVSLTCLVKGFYPSDIAVEWESNGQPENNYKTTPPVLDSDGSFFLYSKLTVDKSRWQQGNVFSCSVMHEALHNHYTQKSLSLSPGK
light: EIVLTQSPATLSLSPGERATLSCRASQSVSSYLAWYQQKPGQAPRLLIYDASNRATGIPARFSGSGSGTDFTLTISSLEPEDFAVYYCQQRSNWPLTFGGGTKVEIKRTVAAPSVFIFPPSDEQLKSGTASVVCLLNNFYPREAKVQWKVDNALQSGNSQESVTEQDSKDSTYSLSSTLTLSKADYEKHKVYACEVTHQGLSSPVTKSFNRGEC
notes: copies: 2 + 2
With B1, the “Bmax (OD405 at 10 µg/ml)” value in experiment [1] is 0.156 OD405; in experiment [6] it was 0.0119 OD405. The “EC50 (read off the curve)” value in experiment [2] was about 0.03 µg/mL. Further, the binding result in experiment [3] is given as “no binding (tested: 10 µg/ml)”; in experiment [4], “no binding”; in experiment [7], “no binding”. In experiment [5], the “IC50 (read off the curve), rosetting assay with thrombin-activated cynomologus platelets and HL60 cells” value was about 0.2 µg/ml.
